Two substances from patent US20030145347 can be followed below.

Series [1] concerns rice thioredoxin with S-tag (recombinant, expressed in E. coli from pNOV4113).
Series [2] concerns soybean thioredoxin prep without S-tag (recombinant, expressed in E. coli from pNOV4112, S-Tag removed by thrombin cleavage).
Series [3] concerns soybean thioredoxin with S-tag (recombinant, expressed in E. coli from pNOV4112).

As to “Arabidopsis NADPH thioredoxin reductase without S-tag (recombinant, expressed in E. coli from pNOV4115)”, in series [1], the “reduction of thioredoxin in vitro” value was “Arabidopsis thioredoxin reductase is found to be active in reducing rice thioredoxin in vitro”. Further, the “reduction of thioredoxin, DTNB assay” value in series [1] was “can also reduce rice thioredoxin”; in series [2], “can reduce soybean thioredoxin with and without the S-tag”; in series [3], “can reduce soybean thioredoxin with and without the S-tag”.

Turning to “soybean thioredoxin prep without S-tag (recombinant, expressed in E. coli from pNOV4112, S-Tag removed by thrombin cleavage)”, in the series with insulin, the OD 650 nm (after 31 minutes), insulin reduction assay, thioredoxin 4 ug as printed in the row amounted to 0.001 OD 650 nm; the OD 650 nm (after 31 minutes), insulin reduction assay, thioredoxin 5 ug as printed in the row came out at 0.0077 OD 650 nm; the OD 650 nm (after 31 minutes), insulin reduction assay, thioredoxin 6 ug as printed in the row turned out to be 0.0084 OD 650 nm; the OD 650 nm (after 31 minutes), insulin reduction assay, thioredoxin 7 ug as printed in the row was determined as 0.0117 OD 650 nm. For the same substance, in the series with insulin, the Rate of Precipitation (change of A650/min), insulin reduction assay, thioredoxin 4 ug as printed in the row is 3.2e-05 A650/min; the Rate of Precipitation (change of A650/min), insulin reduction assay, thioredoxin 5 ug as printed in the row worked out at 0.00025 A650/min; the Rate of Precipitation (change of A650/min), insulin reduction assay, thioredoxin 6 ug as printed in the row came out at 0.00027 A650/min; the Rate of Precipitation (change of A650/min), insulin reduction assay, thioredoxin 7 ug as printed in the row turned out to be 0.00038 A650/min.
